{"source": "patent US20210269771A1", "about": "(RAMOT AT TEL AVIV UNIVERSITY, published 2021)", "binders": {"B1": {"name": "3BNC117 expressed as a membranal B cell receptor (BCR) on engineered B cells (antibody, V domains shown)", "VH": "QVQLLQSGAAVTKPGASVRVSCEASGYNIRDYFIHWWRQAPGQGLQWVGWINPKTGQPNNPRQFQGRVSLTRHASWDFDTFSFYMDLKALRSDDTAVYFCARQRSDYWDFDVWGSGTQVTVSS", "VL": "DIQMTQSPSSLSASVGDTVTITCQANGYLNWYQQRRGKAPKLLIYDGSKLERGVPSRFSGRRWGQEYNLTINNLQPEDIATYFCQVYEFVVPGTRLDLK", "notes": "also called 3BNC117 BCR; ADN171"}, "B2": {"name": "3BNC117 antibody, recombinant, expressed in Expi293F cells and purified (antibody, V domains shown)", "VH": "B1 VH", "VL": "B1 VL", "notes": "also called pADN210 (light chain) / pADN211 (heavy chain)"}}, "key": {"[1]": {"biological_target": "T1, gp120 antigen of the YU2.DG HIV strain, His-tagged (HIV-1 strain YU2.DG, UniProt P35961 32-498)", "T1 construct": "domain: gp120; also called gp120-YU2.DG; gp120-YU2", "assay": "flow cytometry on engineered primary human and murine B cells"}, "[2]": {"biological_target": "T1, gp120 antigen of the YU2.DG HIV strain, …", "assay": "ELISA (FIG. 15A)", "experimental": "Enzyme Linked Immunosorbent assay. […] Plates were washed with PBST and blocked for two hours with 5% BSA in PBST, washed again and detection antibodies, anti-mouse IgA(abcam) or anti-mouse IgG or anti-mouse IgG1 or anti-mouse IgM (Jackson ImmunoResearch) were provided for an additional incubation of two hours at 2 μg/ml in PBST. Before detection with QuantaBlu (ThermoFisher) according to manufacturer protocols, plates were washed for an additional round. Detection was done in a Synergy M1 Plate reader (Biotek). The concentration of antigen specific antibodies was determined by reference to the dilution factor of the standard curve."}}}
{"binder": "B1", "values": [{"measurement": "binding result", "setting": "[1]", "value": "binds"}]}
{"binder": "B2", "values": [{"measurement": "binding result", "setting": "[2]", "value": "binds"}]}
